This note sets out measurements from patent US20020150536, “Nucleic acid ligands to integrins” (GILEAD SCIENCES, INC., published 2002).

This series concerns the target integrin alphaV beta3 (Homo sapiens, UniProt P06756;P06756;P05106 P06756:31-889,P06756:891-1048,P05106:27-788). As to the kind of experiment: microtiter plate, streptavidin-AP; Mg2+, Ca2+, Mn2+, pH 7.5, 37 C. As to conditions: label: 5'-biotin. How it is done: The affinity of individual RNAs and RNA pools for αᵥβ₃ was determined by titration of biotinylated RNA with a small quantity of immobilized integrin. Bound RNA was detected through the biotin moiety. Biotinylated RNA was prepared according to standard transcription protocols, but including a 5-fold molar excess of a 5′-biotin-modified GMP over GTP in the reaction mixture. Methods for synthesizing 5′-biotin-modified guanosine nucleotides are described in WO 98/30720 entitled “Bioconjugation of Oligonucleotides,” specifically incorporated herein by reference in its entirety. The modified nucleotide is incorporated at the 5′ end of the transcript in proportion to its representation in the guanosine pool. 96-well microtiter plates (Immulon 2, Dynatech Laboratories, Inc., Chantilly, Va.) were coated overnight at 4° C. with 100 μL purified αᵥβ₃ at a concentration of 0.25 μg/mL in 20 mM TrisHCl, pH 7.5, 150 mM NaCl, 1 mM MgCl₂, 2 mM CaCl₂, 0.1 mM MnCl₂. Coating concentrations were 0.8 μg/mL for αIIbβ₃ and 0.3 μg/mL for αᵥβ₅. Wells were blocked with 200 μL of a solution of 3% BSA in the same buffer (1 hour at room temperature) then rinsed 3 times with 200 μL binding buffer (50 mM TrisHCl, pH 7.5, 137 mM NaCl, 2.7 mM KCl, 1 mM MgCl₂, 2 mM CaCl₂, 0.1 mM MnCl₂, 0.1% BSA). Individual RNAs or RNA pools were denatured briefly at 93° C. in binding buffer without divalent cations or BSA, then serially diluted in the same buffer. 50 μL binding buffer containing 2×-concentrations of divalent cations and BSA were added to each well, followed by 50 μL RNA dilution. RNAs were allowed to incubate in the integrin-coated wells at 37° C. for 30-60 minutes. Unbound RNAs were removed by 3 rapid washes in binding buffer. To detect bound RNA, 100 μL of a 1:2500 dilution in binding buffer of streptavidin-alkaline phosphatase conjugate (Calbiochem) were incubated in each well for 30 minutes at room temperature, followed by three rapid washes, as above. 100 μL/well p-nitrophenyl phosphate (Sigma Chemical Co., St. Louis, Mo.) was added and incubated at room temperature for 30 minutes. Color development was monitored by absorbance at 405 nm.

The Kd is the free concentration of one partner at which half of the binding sites on the other are occupied at equilibrium, for simple one-to-one binding. A high value points to lower affinity.

Residue numbers refer to the chain shown, from its start. Some results are limits rather than exact numbers.

integrin alphaV beta3, sequence (P06756 31-889, chain 1 of 3): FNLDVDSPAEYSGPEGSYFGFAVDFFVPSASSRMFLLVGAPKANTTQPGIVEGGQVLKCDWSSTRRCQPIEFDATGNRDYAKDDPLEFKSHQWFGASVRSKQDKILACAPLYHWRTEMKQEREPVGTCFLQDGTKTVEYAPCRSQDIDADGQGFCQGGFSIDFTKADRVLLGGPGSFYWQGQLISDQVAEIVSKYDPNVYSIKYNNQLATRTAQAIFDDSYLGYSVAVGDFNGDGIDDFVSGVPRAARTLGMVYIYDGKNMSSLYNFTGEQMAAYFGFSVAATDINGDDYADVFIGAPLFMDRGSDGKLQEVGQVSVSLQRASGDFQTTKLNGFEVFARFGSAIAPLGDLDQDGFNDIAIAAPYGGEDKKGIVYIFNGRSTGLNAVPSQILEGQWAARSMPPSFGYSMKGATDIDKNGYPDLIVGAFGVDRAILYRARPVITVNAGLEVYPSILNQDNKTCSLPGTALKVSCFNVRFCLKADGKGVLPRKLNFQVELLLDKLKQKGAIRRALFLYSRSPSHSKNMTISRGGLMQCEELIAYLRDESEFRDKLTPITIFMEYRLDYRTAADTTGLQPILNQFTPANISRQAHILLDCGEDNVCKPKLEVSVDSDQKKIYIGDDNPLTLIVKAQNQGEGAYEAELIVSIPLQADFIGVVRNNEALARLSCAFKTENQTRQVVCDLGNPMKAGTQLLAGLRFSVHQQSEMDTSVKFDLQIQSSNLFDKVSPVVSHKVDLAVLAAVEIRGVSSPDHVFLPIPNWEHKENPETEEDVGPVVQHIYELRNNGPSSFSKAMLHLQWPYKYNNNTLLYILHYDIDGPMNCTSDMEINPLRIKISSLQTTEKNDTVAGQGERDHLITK
integrin alphaV beta3, sequence (P06756 891-1048, chain 2 of 3): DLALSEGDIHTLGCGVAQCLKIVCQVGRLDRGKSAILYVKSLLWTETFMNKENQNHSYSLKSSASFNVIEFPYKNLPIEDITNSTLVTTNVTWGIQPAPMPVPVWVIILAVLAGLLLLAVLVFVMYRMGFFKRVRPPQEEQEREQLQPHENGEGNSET
integrin alphaV beta3, sequence (P05106 27-788, chain 3 of 3): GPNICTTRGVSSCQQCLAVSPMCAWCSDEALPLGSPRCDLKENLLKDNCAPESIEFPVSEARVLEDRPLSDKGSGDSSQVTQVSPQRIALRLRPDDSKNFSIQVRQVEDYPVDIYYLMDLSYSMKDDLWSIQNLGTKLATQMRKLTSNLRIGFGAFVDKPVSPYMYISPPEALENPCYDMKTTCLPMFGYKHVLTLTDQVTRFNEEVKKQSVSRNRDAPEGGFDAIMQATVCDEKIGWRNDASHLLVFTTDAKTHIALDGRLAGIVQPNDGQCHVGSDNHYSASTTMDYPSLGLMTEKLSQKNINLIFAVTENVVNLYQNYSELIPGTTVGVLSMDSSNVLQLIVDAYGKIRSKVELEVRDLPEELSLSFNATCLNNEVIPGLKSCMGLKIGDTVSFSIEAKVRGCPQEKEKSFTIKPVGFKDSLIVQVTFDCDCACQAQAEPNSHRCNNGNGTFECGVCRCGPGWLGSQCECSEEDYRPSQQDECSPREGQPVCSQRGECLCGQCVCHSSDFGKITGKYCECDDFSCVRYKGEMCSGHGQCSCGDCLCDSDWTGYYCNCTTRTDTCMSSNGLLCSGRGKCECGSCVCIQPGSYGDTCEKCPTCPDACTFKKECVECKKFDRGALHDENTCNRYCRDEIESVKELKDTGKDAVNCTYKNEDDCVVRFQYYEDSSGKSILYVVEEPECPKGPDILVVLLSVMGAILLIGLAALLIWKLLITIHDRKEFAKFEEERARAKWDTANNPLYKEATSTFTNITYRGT

B1: 15.20 (ssRNA)
RNA: GGGAGACAAGAAUAAACGCUCAAUUCAACGCUGUCCAAGGGCUUAUAUGAGCGCAUUAUACCCUUCGACAGGAGGCUCACAACAGGC
modifications: 2'-F C and U
The molecule B1 displayed a Kd of 20 nM.

B2: 7.54 (ssRNA)
RNA: B1 RNA with A27G, C35U, A55G
modifications: 2'-F C and U
The molecule B2 displayed a Kd of 230 nM.

B3: 7.38 (ssRNA)
RNA: B1 RNA with A55G
modifications: 2'-F C and U
Consider B3, for which binding was put at a Kd of 49 nM.

B4: 15.53 (ssRNA)
RNA: B1 RNA with A37U, U56G, U57G
modifications: 2'-F C and U
With B4, the Kd came to 70 nM. This Kd and that of the molecule before are within 1.5-fold of each other.

B5: 7.77 (ssRNA)
RNA: B1 RNA with C31A, C35U, C36G, A38G
modifications: 2'-F C and U
The molecule B5 came in with a Kd of 770 nM.

B6: 15.21 (ssRNA)
RNA: GGGAGACAAGAAUAAACGCUCAACGGUGAAGACCUCUAUUAACAACAUGACCUGCCUGCGUUGUUCGACAGGAGGCUCACAACAGGC
modifications: 2'-F C and U
In turn, B6 came in with a Kd of 200 nM.

B7: 7.66 (ssRNA)
RNA: GGGAGACAAGAAUAAACGCUCAAGUGAACCGAUAAGCGAAAGUAGUACCCCUGCUUGACUACUUUCGACAGGAGGCUCACAACAGGC
modifications: 2'-F C and U
In turn, B7 registered a Kd of over 1000 nM.

B8: 15.19 (ssRNA)
RNA: GGGAGACAAGAAUAAACGCUCAAUGUAGCCGCAUGUCGAGCAGCAAUUCCUGCCAUUGUAGGUUCGACAGGAGGCUCACAACAGGC
modifications: 2'-F C and U
B8 displayed a Kd of 770 nM.

B9: 7.13 (ssRNA)
RNA: B8 RNA with C29U
modifications: 2'-F C and U
B9 had a Kd of over 1000 nM.

B10: 15.34 (ssRNA)
RNA: GGGAGACAAGAAUAAACGCUCAAUCCCACCCUGCCUUGUCUGUUUGAUAGAGACACUGUCCUUUUCGACAGGAGGCUCACAACAGGC
modifications: 2'-F C and U
B10 displayed a Kd of 190 nM.

B11: 15.5 (ssRNA)
RNA: GGGAGACAAGAAUAAACGCUCAAGCAUUCAAAAUUUGCGAGAACGAAUAGAAGUCCGAGAGCCUUCGACAGGAGGCUCACAACAGGC
modifications: 2'-F C and U
Consider B11, for which binding was put at a Kd of 4000 nM.

B12: 15.43 (ssRNA)
RNA: GGGAGACAAGAAUAAACGCUCAACGCCGUUAUCACGACGUGCGUUCUGGGCGGUACUCGCGCAUUCGACAGGAGGCUCACAACAGGC
modifications: 2'-F C and U
B12 showed a Kd of 45 nM.

B13: 15.13 (ssRNA)
RNA: GGGAGACAAGAAUAAACGCUCAAGCGGGAUUUUCCUGAUCAUCCCACUGAUUCGGGGCCUUACUUCGACAGGAGGCUCACAACAGGC
modifications: 2'-F C and U
Consider B13, for which binding was put at a Kd of 790 nM.

B14: 15.18 (ssRNA)
RNA: GGGAGACAAGAAUAAACGCUCAAUUCAACGCUGUGAAGGGCUUAUAUGAGCGGAUUACCCUUCGACAGGAGGCUCACAACAGGC
modifications: 2'-F C and U
On to B14, for which the Kd is 2 nM. Against the preceding molecule, the Kd is about 400-fold lower.

B15: 15.50 (17.3) (ssRNA)
RNA: B14 RNA with A27G, U47C
modifications: 2'-F C and U
For B15, the Kd turned out to be 30 nM.

B16: 17.2 (ssRNA)
RNA: B14 RNA with A27U
modifications: 2'-F C and U
As to B16, binding was characterised by a dissociation constant (Kd) of 2 nM.

B17: 15.46 (17.20) (ssRNA)
RNA: B14 RNA with A27G
modifications: 2'-F C and U
On to B17, for which the Kd was 40 nM.

B18: 17.11 (ssRNA)
RNA: B14 RNA with A27U, G53A
modifications: 2'-F C and U
Consider B18, for which the Kd was 4 nM. Compared with the last molecule, the Kd is about 10-fold lower.

B19: 15.39 (ssRNA)
RNA: GGGAGACAAGAAUAAACGCUCAAUCAAUCUCGGACUAGACUAACGACCUUGGUUGACGCUCAUUCGACAGGAGGCUCACAACAGGC
modifications: 2'-F C and U
For B19, the Kd amounted to 410 nM.

B20: 15.4 (ssRNA)
RNA: GGGAGACAAGAAUAAACGCUCAAUGAUUUCAUGACUUAUGCCGCCGGCAUGACUUCAAUGACGUUCGACAGGAGGCUCACAACAGGC
modifications: 2'-F C and U
Consider B20, for which the Kd was found to be 2000 nM.

B21: 15.3 (17.17) (ssRNA)
RNA: GGGAGACAAGAAUAAACGCUCAAUUCAACGUUGUCCAAGGGCUUAUAUGAGCGGAUUACCCUUCGACAGGAGGCUCACAACAGGC
modifications: 2'-F C and U
Molecule B21 registered a Kd of 8 nM.

B22: 15.10 (ssRNA)
RNA: B21 RNA with U31C, C35U
modifications: 2'-F C and U
As for B22, the affinity, expressed as Kd, was 20 nM.

B23: 17.13 (ssRNA)
RNA: B21 RNA with U31C, A50G
modifications: 2'-F C and U
As to B23, the Kd stood at 10 nM.

B24: 17.1 (ssRNA)
RNA: B21 RNA with U31C, C36A, G49A
modifications: 2'-F C and U
Molecule B24 returned a Kd of 380 nM.

B25: 15.17 (ssRNA)
RNA: B21 RNA with C36A, U48C, A50G
modifications: 2'-F C and U
B25 registered a Kd of 4 nM.

B26: 15.7 (ssRNA)
RNA: B21 RNA with A27U, U31A, C36A
modifications: 2'-F C and U
For B26, the Kd is 5 nM.

B27: 17.8 (ssRNA)
RNA: B21 RNA with C36U
modifications: 2'-F C and U
In turn, B27 showed a Kd of 18 nM. This Kd is about 3.6-fold higher than that of the molecule before.

B28: 15.8 (ssRNA)
RNA: B21 RNA with A27G, U31C, C35U, C36G, U48C
modifications: 2'-F C and U
Regarding B28, the Kd stood at 5 nM.

B29: 7.5 (ssRNA)
RNA: GGGAGACAAGAAUAAACGCUCAAGGUAGUAAAUGGACUCCUGCCAUCCAAUACUAUCUCUGAGUUCGACAGGAGGCUCACAACAGGC
modifications: 2'-F C and U
The molecule B29 yielded a Kd of over 1000 nM.

B30: 7.41 (ssRNA)
RNA: GGGAGACAAGAAUAAACGCUCAAGCGAGCCUAUUGUCUAAGAUGCACCAGGCCUGUUAAGCAUUUCGACAGGAGGCUCACAACAGGC
modifications: 2'-F C and U
As to B30, the Kd is over 1000 nM.
